{
  "source": "paper PMC5971062",
  "about": "(Biochemistry, 2018)",
  "molecular_target": "T1, Enhanced intracellular survival (Eis) protein from Mycobacterium tuberculosis, wild type (Mycobacterium tuberculosis, UniProt P9WFK7)",
  "T1 sequence": "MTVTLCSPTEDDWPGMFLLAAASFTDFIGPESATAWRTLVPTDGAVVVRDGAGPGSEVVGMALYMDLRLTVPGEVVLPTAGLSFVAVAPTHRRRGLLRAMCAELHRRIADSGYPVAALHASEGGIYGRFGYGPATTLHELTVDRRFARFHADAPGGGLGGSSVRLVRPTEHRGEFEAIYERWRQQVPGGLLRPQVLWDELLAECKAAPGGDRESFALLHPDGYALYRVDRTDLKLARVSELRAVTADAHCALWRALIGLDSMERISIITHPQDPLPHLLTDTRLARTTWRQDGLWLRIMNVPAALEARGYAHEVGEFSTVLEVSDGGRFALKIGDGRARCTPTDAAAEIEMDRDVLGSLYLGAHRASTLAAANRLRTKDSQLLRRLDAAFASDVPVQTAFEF",
  "test": "crystal structure",
  "data": [
    {"binder": "ATKAPAKKA", "note": "[HupB_Mtb 9-mer peptide ATKAPAKKA]", "values": [
      {"measurement": "binding result", "value": "binds"}
    ]}
  ]
}
